In a protein production outcome set (Wang et al. 2014):

Assay: label from the status in PepcDB records
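Also: failed if final PepcDB status was selected cloned or expressed and not failed if soluble or beyond.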

Sequence | protein production
MEPSSLVLALEQTSEVLGKEPIVPFAILLVVLLVVPILFERLRLPGIVGLVLSGLVLGPSGWNLFHTKSPMISLLSDIGLVYLMFVAGLEVDLELWRRRQRRALGFGCVSFTIPLLIGTLVGRFFHFGWNTSVLIGSLLTSYSLLAYPIINRLGVISNQAVTITIGATVFTDISALIVLAICIPAFQMGMSNIYQILSLLGWLIIYSIVILVGFDWAGREFFRRSGDDEGNKFLFVLLTVFLAVVVAQLIGIEKILGAFLAGLAVNEAVGEGPVKEKIVFVGSVLFIPIFFINLGLLIDLPGLVNSLFTLQLTSLIVISLVASKFIAAWLAKVFYGYSWQEMLTMWSLSIPQVGTTLAATFVGYHTGLLSSAVLTSVVILMLITATLGPLITSRTARALTTVSITESVDANLPEPQVIETQNGNFTIVVPIYNPHTQQYLVEMAALLAHQAQGRIIPLTIATAAAHMDAPQLESTLQRSERLLAKATSQSQALGVAASPLLRIDDASAPGISRAAREQKANLIVMGWGKRTGLRARLFGNVIDNVLWSSHCPVAVTRLVESPKKIQRILVPVENLITPTLQPVQFAQMLAEANQAQVTVLNVCDRRTSSSKIASRRSQLALLVSKLALPNSPEVQIIAHENAAQAILQAARLYDLVVLPFIRNRTSPGGLALSDVTTQLASQLTCSIVMLGEPQRLQTGNITSVAPNTTTAV | failed
MFLKIPFKILRLATAYVRIRVKNIILKLKLVFGKNVFIGSNVVIDPGYHWLISIGNNSAITNGVTILSHDGSLSRHTGYTKIGKVSIGSNTFIGVKSIILPGVSIGNNVIIGAGSVVTKDIPDNSVAIGNPAVVVGSIKDYINKHKRMIRTSEVYECQSLLKDNIRDFKGEIGYVKTNFENHEDL | failed
DEKGNIVDGDQIMYICSKHLKSEGRLKDDTVVSTVMSNLGFYKALEKEGIKSVQTAVGDRYVVEAMKKDGYNVGGEQSGHLIFLDYNTTGDGLLSAIMLMNTLKATGKPLSELAAEMQKF | failed
MKTLLIIAHAPSENTKLMAEAVLKGAQHPDIEQVQTRWVRPLEATPEDVLSCDGIIMGTTENLGYMSGALKDFFDRCYYPCLEVKQGLPCALYVRAGNDGTGTCRAVETICTGLRWNWIQPPLVCRGDWQTLFIEQCEELGMTMAAGLDVGIY | failed
GAFDAAQLDVAQAYARHLAVSLQQSLLRQRVARLGRVYEVLSRINALVARCHEREELFDGICRVTVEVGTYRMAWVGVIDPETLNGTVVAFRGEDSDYLRQIRLSAKEDSPYRDRPACKAVRQKEIVVCNDVQEDASLKGLAPHLISYGVRSVACLPVMLDGRAFAVLALFAGDVGAFDRQEMGLLRELASDIGFALDHIQKEERLDYLAYYDS | failed
MQTSIDPVFAGWDGSVAQARQLQQQLAQRVALRDEVSAAPALLAGFDVGFEDDGQTTRAAAVLLDAQTLLPLETHVARVPTSMPYVPGLLSFRELPALLRALALLARTPDLVFIDGQGIAHPRRFGIAAHFGVVTGLPSIGVAKQRLAGTFIEPGGERGDHSPILLAGAQIGWALRSKPRCNPLIVSPGHRVSMQGALDWTLRTLRAYRLPEPTRLADRLASRRGEIELQTQPTLLLEHHHHHH | failed
MIRKWDTKDTAPLLALWLDSTIHAHPFISESYWRDSVAVVRDVYLPAASTWVWEQDGELKGFVSVLDSRFVGALFVAPGATRQGIGRALLDEVKQHYAWLSLEVYQKNESAVSFYHAQGFRIEDCAWQDDTQHPTWIMRWPA | not failed
DGENYFIVDAHVALWDARRENQRNIHGKQFIDCFYDYHRNLSPASELWPYEDFLYQGGERLMKDLFTDGYVDHAIFQPAHLGAFYNTGFGQTEEAFALTRKHPGMLTYNHCFDPRFEEAGLKQLREDAARFGLKGVKLYTAEWKGDSRGYKLSDPWTYRYLDACRELGIKNIHVHKGPTIRPLDRDAFDVADVDAAASDFTDLNFVVEHCGLPRLEDFCWIATQEPNVHAGLAVAIPFMHTRPRYFAQIIGELLYWLDEDRIQFSSDYALWTPRWIVEQFVDFRIPDDMTGEYPQLTVAQKKKILGLNAAAMYDI | failed
MLGLVLLYVGIVLISNGICGLTKVDPKSTAVMNFFVGGLSIICNIVVITYSALHPTAPVEGAEDIAQVSHHLTSFYGPATGLLFGFTYLYAAINHTFGLDWRPYSWYSLFVAINTIPAAILSHYSDMLDDHKVLGITEGDWWAIIWLAWGVLWLTAFIENILKIPLGKFTPWLAIIEGILTAWIPAWLLFIQHWV | failed
VVEFTTCPDKPGIPVKPSVKGKIHSHSFKITWDPPKDNGGATINKYVVEMAEGSNGNKWEMIYSGATREHLCDRLNPGCFYRLRVYCISDGGQSAVSESLLVQTPAV | not failed
MSLWLTHPLFLPSLIVGVTIVLWATSLLPEFITALLFFAAAMMAKIAPPEVIFGGFASSAFWLVFSGFVLGIAIRKTGLADRAAQALSARLTDSWPRMVASVVLLSYALAFVMPSNMGRIALLMPIVAAMARRAGIADGSRGWFGLALAVGFGTFQLSATILPANVPNLVMSGAAEGSYGIHLNYVPYLLLHTPVLGWLKGAVLVALICWLFPGKPHPPRDLAPLPPMSRDEKRLAWLLAVVLSLWVTESWHGVGPAWTGLAAAVITLLPRVGFINGEEFASGVNMRTCIYVAGILGLAIAVTQTGIGGAVGNALLQVMPLDKDNPFTSFLALTGITSALNFIMTANGVPALYTTFAQSFADATGFPLLSVIMIQVLGYSTPLLPYQASPIVVAMGLGKVPARAGMQLCLALAAVSYLILLPLDYAWYQLLGKL | failed
MISKAISAQCRHLHRAAVLVAVMSALAATGCSKKEAPQAPAPSAGTPQAGAPAAMPEGMSGQQQTAMGRAIFNKRCASCHGTDGNGAGSRSGPALDQAQFKYGRTPEAIRESIVKGRPNGMPAFGAAFQEIEIDTLVGYVMGLTKQ | failed
ALAERRLFAELVDHSVVNVHVVDKDLRWLAVNRQARHDFHLLYGRTPEIGDYLPGLFEDGTAGQTPILPMWQRALAGEQFIEIGTFGKPPAVRHYELRFNALRDPKGEVQGAFLFAYDISERVQEQERLAKAEAALRQAQKMEAVGQLSGGIAHDFNNLLGGI | failed
MTESNFDLPIISVIIPAYNCEKTIKKTIDSVLDQSFTDFELIVINDGSQDATLDIVSQIEDSRIKIFSFENAGGNVSRNRGLNLAVGKFISFLDADDIWTPNKLESQLEALHNNPGFHVAYSWTDYIDEDGNFLISGRRVTLNGDVYKKLFINNFLENGSNPLICKEALIALGGFDESLKAAQDWDMWLRLANKYSFVAVPYVQILYRVSSNSLSSNLVRQEKACKQVLEKAYQARPAIGNHILHLSIANLYKYLACKALQKPYSRSKGLAAVKFIWQYFLYDSSRMRRINSTLKLLFKALIIIILPAGLSTELLAKMRTKSLNPQLSAISGS | failed
MTVTAPNALNFECETGNYHTFCPISCVAWLYQKIEDSFFLVIGTKTCGYFLQNAMGVMIFAEPRYAMAELEEGDISAQLNDYEELKRLCLEIKRDRNPSVIVWIGTCTTEIIKMDLEGLAPKLEAEIGIPIVVARANGLDYAFTQGEDTVLAAMAARCPTSTAISDPEERNPIQRLLNFGKKKEEVQAQSSQYHPHPPLVLFGSLPDPVVTQLTLELKKQGIKVSGWLPAKRYTELPVIDEGYYVAGVNPFLSRTATTLIRRRKCQLITAPFPIGPDGTRTWIEQICATFGIQPQGLAEREAETWQKLSDYLELVRGKSVFFMGDNLLEISLARFLIRCGMRVLEIGIPYMDKRYQAAELALLSQTCAEMGHPLPTIVEKPDNYNQLQRIKALQPDLVITGMAHANPLEARGISTKWSVEFTFAQIHGFGNARDILELVTRPLRRNQALAGLGWQKLVAHLEHHHHHH | failed
NTITVSELLELIKKEDVIIVDTRSPREFKEETLPGAINIPLFLDDEHALIGKTYKQESREKAIEIATDIVEKSLKRILNEAKKLDRDKLIVVFCARGGMRSQTMALILQLLGFKVKRLIGGFKAFKHA | not failed
MNGSADAGPRPRKYVFITGGVVSSLGKGILTSSLGALLRARGYRVTAIKIDPYVNVDAGTMRPYEHGEVFVTADGAETDLDIGHYERFLDMDLSRGNNLTTGQVYLSVIQKERRGEYLSQTVQVIPHITDEIKERIRKVAEEQKAEIVVVEVGGTVGDIESLPFLEAIRQFRFDEGEGNTLYLHLTLVPYLETSEEFKTKPTQHSVATLRGVGIQPDILVLRSARPVPEEVRRKVALFTNVRPGHVFSSPTVEHLYEVPLLLEEQGLGRAVERALGLEAVIPNLSFWQEAVRVLKHPERTVKIAIAGKYVKMPDAYLSLLEALRHAGIKNRARVEVKWVDAESLEAADLDEAFRDVSGILVPGGFGVRGIEGKVRAAQYARERKIPYLGICLGLQIAVIEFARNVAGLKGANSTEFDPHTPHPVIDLMPEQLEVEGLGGTMRLGDWPMRIKPGTLLHRLYGKEEVLERHRHRYEVNPLYVDGLERAGLVVSATTPGMRGRGAGLVEAIELKDHPFFLGLQSHPEFKSRPMRPSPPFVGFVEAALAYQERA | not failed
MKVYPKVSIVMPVYNSERYLAEAIESILDQTYNDFEFIIVDDGSTDESYNIISSYANKDNRIIVISREHRGLVDSLNEGINIARGKYIARMDADDISINNRIEKQFEFLELNKDVDILGTRIEAFGDIDEKQKTIYNSAFSIKFDSQNIEQVFLTSCAIPHPSVMFKKDSIVKLRGYRKEYDTAEDYDLWLRAIRNGYKIVRMDECLIKYRVHNKSKTAVEMFNPKMVEYTMKAKIDYINDTNKKDKVDYLIWGASTGGKLVKKVVESTTDKFNLIGFIDKYKEGEVDECRIYKPEDLMKLHSDYVFIATLPGKEEADEFLKNCGLKKFKEYISLVLEHHHHHH | failed
MTKEPRNLSEWIKELKKASREAVILVEGKNDKKALSKFSIKNVIDLSGKRYADVVDMLEGKWEKVILLFDLDTHGERINQKMKELLSSQGFLVDENFRNFLKKWNIIHIEEINGGKNS | not failed
MASYDQISKNNWRYRISLGKNAETGKYEYISKTGFKRKSDAKHQAEMIGRQLRNGDYIAPSSSTFKQVADDWLKQYANDVKVSSVRAREKAIQHAIERFNTKPIQTIKKHDYQRFVDDISAQYSKNYVDSIVASTNMIFKYAYDTRLIKAMPSEGIKRPKKKVSVEELEDIEIHKKFLEKDELFQFLKVAKYHHSPQNSFEVFTTLAYTGMRAGELLALKWSDIDFENNTISITKTYYNPNNNKKHYQILTRKTESSIGKITVDPHVIQLLKDYKVNVQDTWKNELYVDNNFVFTDVNGYPLVIKKLQLWIKAILKKTDITNKQISTHSFRYTHYALLIEAGVHIKEIQERLRHKDINTTMNIYAKITNSYKKDASQKFSKLMENVSKGLF | failed
MKEKGGDSLKYCYQCGLCDSVCPWNRVRQFSMRKIVRQGTFGLTEIEQEDIWRCSTCGTCPSRCPRGVNQIEAGVAMRRIGAEYDVLEHHHHHH | failed
ASIYKNKKSHEQLSALKGSFCRNQFPGQSEVEHLTKVTGLSTREVRKWFSDRRYHCRNLKGSR | not failed
MSLENKENLVVIDLAIAEDSIQKKNIVYDKNGQNHFDVISAFIKSIRGSDPDATLYWLANMVEAGEDPNFIFRRLLISACEDIGLADPNAIVVVQSCCDAFDRVGFPEGLFFLSQASLYLAISPKSNSTKSIFKAMEAIKATNVSLVPNHLKNNASNYLNPHNYQGKWLQQEYLPTDLQGIKFWKPKDSGWEKNKYEDLPKKQKSEGHHHHHH | not failed
PTRQVLQGSRCRLEPLTLAHASDLFAAHQLAPDARSWTWLLREPESNLAEFSAWVEQVATLADPIHFAVVDQQRGKAVGSLALMRIDIAHGVVEVGHVHFSPLLSRTAMATEAHWLLMQYVFDTLGYRRYEWKCNSLNIPSARAARRLGFQYEGRFRQALVSKGHNRDTDWFSVIDGEWPELD | failed
MLGLHGRKPAQVIVEPVAKLMIKLKVTPNQLTLVSAGLTVGVALLLIPTGHLIWAAVLTGLFAAFDMIDGTVARMQGGGTKFGATLDATCDRITDGALFGAITWWLVYSYDAPQALVAASLVCLVASQVISYVKARGEASGFTMDGGLVERPERLIVSLVGLGLTGMGVPYAIDVALWALAAGSIYTVVQRLVMAGKSPLAKEFTKAPAGAKADYSNTK | failed
